Data: publication PMC9482650, “Quantitative fragmentomics allow affinity mapping of interactomes” (Nature Communications, 2022)

T1: GRIP1_1, Q9Y3R0
T1 sequence (Q9Y3R0 48-146, limits assumed, looked up): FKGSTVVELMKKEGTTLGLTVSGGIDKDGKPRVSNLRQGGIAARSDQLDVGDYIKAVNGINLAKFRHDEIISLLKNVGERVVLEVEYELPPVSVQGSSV

T2: PDZD2_5, O15018
T2 sequence (O15018 2617-2716, limits assumed, looked up): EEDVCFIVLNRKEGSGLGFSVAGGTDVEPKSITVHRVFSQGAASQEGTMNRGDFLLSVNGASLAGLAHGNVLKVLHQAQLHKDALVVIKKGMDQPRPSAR

T3: MPDZ_6, O75970
T3 sequence (O75970 1003-1099, limits assumed, looked up): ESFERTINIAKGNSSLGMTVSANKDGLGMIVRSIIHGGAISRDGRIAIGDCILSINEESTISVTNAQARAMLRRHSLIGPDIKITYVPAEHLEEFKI

T4: MPDZ_13, O75970
T4 sequence (O75970 1982-2070, limits assumed, looked up): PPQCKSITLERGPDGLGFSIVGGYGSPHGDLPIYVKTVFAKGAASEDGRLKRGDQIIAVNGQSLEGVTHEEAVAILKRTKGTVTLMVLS

T5: SNTB2, Q13425
T5 sequence (Q13425 110-208, limits assumed, looked up): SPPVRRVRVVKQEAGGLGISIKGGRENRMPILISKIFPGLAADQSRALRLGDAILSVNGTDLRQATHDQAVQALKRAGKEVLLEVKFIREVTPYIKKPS

T6: DVL1, O14640
T6 sequence (O14640 246-333, limits assumed, looked up): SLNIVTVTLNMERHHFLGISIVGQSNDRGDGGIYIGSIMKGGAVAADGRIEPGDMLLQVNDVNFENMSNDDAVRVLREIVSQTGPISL

T7: SHANK3, Q9BYB0
T7 sequence (Q9BYB0 641-750, limits assumed, looked up): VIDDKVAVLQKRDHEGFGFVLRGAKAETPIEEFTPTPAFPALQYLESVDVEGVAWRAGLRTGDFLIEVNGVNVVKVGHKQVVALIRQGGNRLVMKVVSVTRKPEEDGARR

T8: PDZD2_4, O15018
T8 sequence (O15018 723-823, limits assumed, looked up): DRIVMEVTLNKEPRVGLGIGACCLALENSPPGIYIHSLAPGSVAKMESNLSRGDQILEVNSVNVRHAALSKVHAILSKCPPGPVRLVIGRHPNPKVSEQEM

T9: NHERF1_1, O14745
T9 sequence (O14745 9-104, limits assumed, looked up): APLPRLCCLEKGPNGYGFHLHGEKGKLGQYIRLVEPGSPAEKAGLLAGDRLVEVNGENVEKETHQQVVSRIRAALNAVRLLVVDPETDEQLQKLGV

T10: PDLIM3, Q53GG5
T10 sequence (Q53GG5 1-94, limits assumed, looked up): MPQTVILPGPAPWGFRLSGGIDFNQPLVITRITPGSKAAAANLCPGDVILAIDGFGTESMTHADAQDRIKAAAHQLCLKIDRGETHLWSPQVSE

T11: LNX2_4, Q8N448
T11 sequence (Q8N448 595-690, limits assumed, looked up): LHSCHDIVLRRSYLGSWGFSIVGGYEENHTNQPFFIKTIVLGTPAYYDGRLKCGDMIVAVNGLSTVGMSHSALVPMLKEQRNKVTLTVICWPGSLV

T12: PDZD2_1, O15018
T12 sequence (O15018 80-192, limits assumed, looked up): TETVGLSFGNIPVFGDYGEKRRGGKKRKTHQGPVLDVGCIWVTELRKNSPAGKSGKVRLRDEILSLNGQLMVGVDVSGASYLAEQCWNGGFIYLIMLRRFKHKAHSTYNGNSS

T13: PDZD4, Q76G19
T13 sequence (Q76G19 125-224, limits assumed, looked up): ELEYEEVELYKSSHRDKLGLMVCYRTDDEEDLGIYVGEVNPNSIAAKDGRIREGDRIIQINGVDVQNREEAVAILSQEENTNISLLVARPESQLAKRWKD

T14: TJP3_1, O95049
T14 sequence (O95049 6-103, limits assumed, looked up): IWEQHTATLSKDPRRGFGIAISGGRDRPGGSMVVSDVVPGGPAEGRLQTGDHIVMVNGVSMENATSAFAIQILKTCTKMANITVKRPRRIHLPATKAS


The binders below were run against T1, GRIP1_1, Q9Y3R0 (assay: holdup assay). Conditions: plain residues with an end cap or a label only (N-terminal biotin on a linker: ttds).
Parameters: key: below the threshold = too weak to quantify, mostly under pKd 3.1 to 4
With PPRQRSETQV [HPV82-E6, Q9IR59] the pKd was “below the threshold”. In the case of SRSRRRETAL [HPV33-E6, P06427], the pKd is reported as “below the threshold”.

These binders were tested against PARD3B_3, Q8TEW8 (assay: holdup assay). Conditions: plain residues with an end cap or a label only (N-terminal biotin on a linker: ttds).
Sequence of PARD3B_3, Q8TEW8 (Q8TEW8 490-594): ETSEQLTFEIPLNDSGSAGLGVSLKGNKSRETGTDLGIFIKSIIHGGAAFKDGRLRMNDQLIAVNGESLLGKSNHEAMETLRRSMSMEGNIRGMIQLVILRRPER
Parameters: key: below the threshold = too weak to quantify, mostly under pKd 3.1 to 4
For PPRQRSETQV [HPV82-E6, Q9IR59], the pKd was “below the threshold”. SRSRRRETAL [HPV33-E6, P06427] was tested, and the pKd was “below the threshold”.

These binders were tested against T2, PDZD2_5, O15018 (assay: holdup assay). Conditions: plain residues with an end cap or a label only (N-terminal biotin on a linker: ttds).
Parameters: key: below the threshold = too weak to quantify, mostly under pKd 3.1 to 4
PPRQRSETQV [HPV82-E6, Q9IR59] was tested, and the pKd was “below the threshold”. SRSRRRETAL [HPV33-E6, P06427] was tested, and the pKd was “below the threshold”.

These binders were tested against RGS3, P49796-9 (assay: holdup assay). Conditions: plain residues with an end cap or a label only (N-terminal biotin on a linker: ttds).
Sequence of RGS3, P49796-9 (P49796 other isoform, or with tags, fused parts or gaps): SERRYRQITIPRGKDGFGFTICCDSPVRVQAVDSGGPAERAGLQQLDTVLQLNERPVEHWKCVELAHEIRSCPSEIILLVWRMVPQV
Parameters: key: below the threshold = too weak to quantify, mostly under pKd 3.1 to 4
With PPRQRSETQV [HPV82-E6, Q9IR59] the pKd was “below the threshold”. With SRSRRRETAL [HPV33-E6, P06427] the pKd was “below the threshold”.

The binders below were run against T3, MPDZ_6, O75970 (assay: holdup assay). Conditions: plain residues with an end cap or a label only (N-terminal biotin on a linker: ttds).
Parameters: key: below the threshold = too weak to quantify, mostly under pKd 3.1 to 4
For PPRQRSETQV [HPV82-E6, Q9IR59], the pKd was “below the threshold”. In the case of SRSRRRETAL [HPV33-E6, P06427], the pKd is reported as “below the threshold”.

What follows are binders tested against T4, MPDZ_13, O75970 (assay: holdup assay). Conditions: plain residues with an end cap or a label only (N-terminal biotin on a linker: ttds).
Parameters: key: below the threshold = too weak to quantify, mostly under pKd 3.1 to 4
For PPRQRSETQV [HPV82-E6, Q9IR59], the pKd was “below the threshold”. With SRSRRRETAL [HPV33-E6, P06427] the pKd was “below the threshold”.

The binders below were run against MAGIX, Q9H6Y5 (assay: holdup assay). Conditions: plain residues with an end cap or a label only (N-terminal biotin on a linker: ttds).
Sequence of MAGIX, Q9H6Y5 (Q9H6Y5 118-211): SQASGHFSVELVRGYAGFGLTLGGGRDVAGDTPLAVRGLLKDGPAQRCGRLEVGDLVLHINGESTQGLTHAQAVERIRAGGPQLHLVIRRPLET
Parameters: key: below the threshold = too weak to quantify, mostly under pKd 3.1 to 4
For PPRQRSETQV [HPV82-E6, Q9IR59], the pKd was “below the threshold”. SRSRRRETAL [HPV33-E6, P06427] was tested, and the pKd was “below the threshold”.

These binders were tested against IL16_2, Q14005 (assay: holdup assay). Conditions: plain residues with an end cap or a label only (N-terminal biotin on a linker: ttds).
Sequence of IL16_2, Q14005 (Q14005 350-450): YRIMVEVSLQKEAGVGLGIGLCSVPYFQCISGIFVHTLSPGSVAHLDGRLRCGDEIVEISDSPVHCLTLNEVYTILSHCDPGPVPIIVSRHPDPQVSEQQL
Parameters: key: below the threshold = too weak to quantify, mostly under pKd 3.1 to 4
For PPRQRSETQV [HPV82-E6, Q9IR59], the pKd was “below the threshold”. SRSRRRETAL [HPV33-E6, P06427] was tested, and the pKd was “below the threshold”.

Each binder was assayed against T5, SNTB2, Q13425 (assay: holdup assay). Conditions: plain residues with an end cap or a label only (N-terminal biotin on a linker: ttds).
Parameters: key: below the threshold = too weak to quantify, mostly under pKd 3.1 to 4
PPRQRSETQV [HPV82-E6, Q9IR59] was tested, and the pKd was “below the threshold”. In the case of SRSRRRETAL [HPV33-E6, P06427], the pKd is reported as 4.56.

What follows are binders tested against T6, DVL1, O14640 (assay: holdup assay). Conditions: plain residues with an end cap or a label only (N-terminal biotin on a linker: ttds).
Parameters: key: below the threshold = too weak to quantify, mostly under pKd 3.1 to 4
PPRQRSETQV [HPV82-E6, Q9IR59] was tested, and the pKd was “below the threshold”. With SRSRRRETAL [HPV33-E6, P06427] the pKd was 4.23.

The binders below were run against T7, SHANK3, Q9BYB0 (assay: holdup assay). Conditions: plain residues with an end cap or a label only (N-terminal biotin on a linker: ttds).
Parameters: key: below the threshold = too weak to quantify, mostly under pKd 3.1 to 4
With PPRQRSETQV [HPV82-E6, Q9IR59] the pKd was “below the threshold”. With SRSRRRETAL [HPV33-E6, P06427] the pKd was “below the threshold”.

The binders below were run against T8, PDZD2_4, O15018 (assay: holdup assay). Conditions: plain residues with an end cap or a label only (N-terminal biotin on a linker: ttds).
Parameters: key: below the threshold = too weak to quantify, mostly under pKd 3.1 to 4
Binder PPRQRSETQV [HPV82-E6, Q9IR59] has a pKd of 4.53. SRSRRRETAL [HPV33-E6, P06427] was tested, and the pKd was “below the threshold”.

Each binder was assayed against T9, NHERF1_1, O14745 (assay: holdup assay). Conditions: plain residues with an end cap or a label only (N-terminal biotin on a linker: ttds).
Parameters: key: below the threshold = too weak to quantify, mostly under pKd 3.1 to 4
For PPRQRSETQV [HPV82-E6, Q9IR59], the pKd was “below the threshold”. With SRSRRRETAL [HPV33-E6, P06427] the pKd was “below the threshold”.

Each binder was assayed against T10, PDLIM3, Q53GG5 (assay: holdup assay). Conditions: plain residues with an end cap or a label only (N-terminal biotin on a linker: ttds).
Parameters: key: below the threshold = too weak to quantify, mostly under pKd 3.1 to 4
In the case of PPRQRSETQV [HPV82-E6, Q9IR59], the pKd is reported as “below the threshold”. In the case of SRSRRRETAL [HPV33-E6, P06427], the pKd is reported as “below the threshold”.

What follows are binders tested against TJP1_1, Q07157 (assay: holdup assay). Conditions: plain residues with an end cap or a label only (N-terminal biotin on a linker: ttds).
Sequence of TJP1_1, Q07157 (Q07157 18-120): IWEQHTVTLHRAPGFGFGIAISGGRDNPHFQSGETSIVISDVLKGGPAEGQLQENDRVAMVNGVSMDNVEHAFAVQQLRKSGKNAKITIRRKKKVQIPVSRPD
Parameters: key: below the threshold = too weak to quantify, mostly under pKd 3.1 to 4
With PPRQRSETQV [HPV82-E6, Q9IR59] the pKd was “below the threshold”. SRSRRRETAL [HPV33-E6, P06427] was tested, and the pKd was “below the threshold”.

What follows are binders tested against T11, LNX2_4, Q8N448 (assay: holdup assay). Conditions: plain residues with an end cap or a label only (N-terminal biotin on a linker: ttds).
Parameters: key: below the threshold = too weak to quantify, mostly under pKd 3.1 to 4
With PPRQRSETQV [HPV82-E6, Q9IR59] the pKd was “below the threshold”. With SRSRRRETAL [HPV33-E6, P06427] the pKd was “below the threshold”.

What follows are binders tested against T12, PDZD2_1, O15018 (assay: holdup assay). Conditions: plain residues with an end cap or a label only (N-terminal biotin on a linker: ttds).
Parameters: key: below the threshold = too weak to quantify, mostly under pKd 3.1 to 4
With PPRQRSETQV [HPV82-E6, Q9IR59] the pKd was “below the threshold”. In the case of SRSRRRETAL [HPV33-E6, P06427], the pKd is reported as “below the threshold”.

What follows are binders tested against NHERF2_1, Q15599 (assay: holdup assay). Conditions: plain residues with an end cap or a label only (N-terminal biotin on a linker: ttds).
Sequence of NHERF2_1, Q15599 (Q15599 9-91): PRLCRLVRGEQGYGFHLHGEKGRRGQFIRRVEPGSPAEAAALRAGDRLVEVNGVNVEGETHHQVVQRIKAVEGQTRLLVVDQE
Parameters: key: below the threshold = too weak to quantify, mostly under pKd 3.1 to 4
For PPRQRSETQV [HPV82-E6, Q9IR59], the pKd was “below the threshold”. With SRSRRRETAL [HPV33-E6, P06427] the pKd was “below the threshold”.

Each binder was assayed against T13, PDZD4, Q76G19 (assay: holdup assay). Conditions: plain residues with an end cap or a label only (N-terminal biotin on a linker: ttds).
Parameters: key: below the threshold = too weak to quantify, mostly under pKd 3.1 to 4
PPRQRSETQV [HPV82-E6, Q9IR59] was tested, and the pKd was “below the threshold”. In the case of SRSRRRETAL [HPV33-E6, P06427], the pKd is reported as “below the threshold”.

Each binder was assayed against RIMS2, Q9UQ26 (assay: holdup assay). Conditions: plain residues with an end cap or a label only (N-terminal biotin on a linker: ttds).
Sequence of RIMS2, Q9UQ26 (Q9UQ26 637-758): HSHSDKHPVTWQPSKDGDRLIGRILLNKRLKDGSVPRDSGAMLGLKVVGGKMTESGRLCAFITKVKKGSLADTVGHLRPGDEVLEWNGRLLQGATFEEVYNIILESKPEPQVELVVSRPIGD
Parameters: key: below the threshold = too weak to quantify, mostly under pKd 3.1 to 4
With PPRQRSETQV [HPV82-E6, Q9IR59] the pKd was “below the threshold”. SRSRRRETAL [HPV33-E6, P06427] was tested, and the pKd was “below the threshold”.

The binders below were run against DVL2, O14641 (assay: holdup assay). Conditions: plain residues with an end cap or a label only (N-terminal biotin on a linker: ttds).
Sequence of DVL2, O14641 (O14641 260-359): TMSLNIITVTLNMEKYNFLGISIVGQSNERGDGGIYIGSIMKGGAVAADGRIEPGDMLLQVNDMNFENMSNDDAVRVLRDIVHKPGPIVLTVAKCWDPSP
Parameters: key: below the threshold = too weak to quantify, mostly under pKd 3.1 to 4
For PPRQRSETQV [HPV82-E6, Q9IR59], the pKd was “below the threshold”. In the case of SRSRRRETAL [HPV33-E6, P06427], the pKd is reported as “below the threshold”.

What follows are binders tested against MAGI3_3, Q5TCQ9 (assay: holdup assay). Conditions: plain residues with an end cap or a label only (N-terminal biotin on a linker: ttds).
Sequence of MAGI3_3, Q5TCQ9 (Q5TCQ9 572-655): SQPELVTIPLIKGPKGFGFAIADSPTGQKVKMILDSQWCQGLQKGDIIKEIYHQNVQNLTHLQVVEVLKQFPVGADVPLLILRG
Parameters: key: below the threshold = too weak to quantify, mostly under pKd 3.1 to 4
In the case of PPRQRSETQV [HPV82-E6, Q9IR59], the pKd is reported as “below the threshold”. For SRSRRRETAL [HPV33-E6, P06427], the pKd was “below the threshold”.

What follows are binders tested against T14, TJP3_1, O95049 (assay: holdup assay). Conditions: plain residues with an end cap or a label only (N-terminal biotin on a linker: ttds).
Parameters: key: below the threshold = too weak to quantify, mostly under pKd 3.1 to 4
PPRQRSETQV [HPV82-E6, Q9IR59] was tested, and the pKd was “below the threshold”. With SRSRRRETAL [HPV33-E6, P06427] the pKd was “below the threshold”.
